From patent US20020115167A1 (published 2002)

Assays:
[1] = target: T1, Dishevelled (Dsh) protein, Drosophila (Drosophila, UniProt P51140 1-623, progressively phosphorylated during development (sites not given)); assay: immunoprecipitation of Dsh from Drosophila embryos, in vitro kinase assay; the kinase was eluted with 700 mM NaCl
T1 construct: also called endogenous Dsh
T1 sequence (looked up): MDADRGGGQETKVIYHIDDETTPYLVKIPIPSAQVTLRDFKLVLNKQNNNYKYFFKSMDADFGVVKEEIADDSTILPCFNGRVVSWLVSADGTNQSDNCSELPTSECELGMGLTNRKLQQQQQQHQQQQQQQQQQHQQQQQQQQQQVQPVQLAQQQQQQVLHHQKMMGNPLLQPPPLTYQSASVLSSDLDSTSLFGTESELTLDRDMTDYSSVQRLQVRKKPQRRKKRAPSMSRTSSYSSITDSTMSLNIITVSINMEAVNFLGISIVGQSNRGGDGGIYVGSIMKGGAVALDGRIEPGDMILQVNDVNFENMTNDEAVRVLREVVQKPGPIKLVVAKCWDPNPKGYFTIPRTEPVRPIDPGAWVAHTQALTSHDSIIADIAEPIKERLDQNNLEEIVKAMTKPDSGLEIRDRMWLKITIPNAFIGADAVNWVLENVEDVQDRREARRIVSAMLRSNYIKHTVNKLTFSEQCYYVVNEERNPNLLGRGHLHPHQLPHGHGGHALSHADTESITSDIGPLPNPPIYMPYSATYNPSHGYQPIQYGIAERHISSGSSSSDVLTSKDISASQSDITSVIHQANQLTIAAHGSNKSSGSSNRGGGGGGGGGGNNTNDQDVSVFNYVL
Protocol: To clone the Dsh-associated kinase, Dsh was immunoprecipitated from Drosophila embryos with preimmune and affinity-purified immune serum, and subjected to an in vitro kinase assay or blotted with anti-Dsh serum. Dsh immunoprecipitates were washed with 700 mM NaCl to elute the associated kinase. The eluted kinase was recovered after dilution by precipitation with GST-fusion proteins. The kinase was purified 60,000-fold from Drosophila embryos and several peptide sequences were then used to clone the cDNA of this kinase. After screening a Drosophila embryo cDNA library with oligo probes designed based on peptide sequences, the cDNA that encodes the kinase was cloned. The cDNA clones encode a protein kinase that is homologous to the C. elegans protein PAR-1 (85% identity in the kinase domain and 42% identity overall). […] Importantly, the kinase activity that was precipitated using GST-DM increased as Dsh became progressively phosphorylated during development. The kinase activity was also present in Dsh immunoprecipitates.
(§1) To perform the kinase assay, the embryos or cells were lysed in lysis buffer (50 mM HEPES [pH 7.6], 100 mM NaCl, 0.5% Nonidet P-40, 10 mM NaF, 5 mM NaPPi, 1.5 mM MgCl₂, 1 mM EGTA, 10% glycerol, and protease inhibitors). Cleared cell lysates were incubated with GST fusion proteins immobilized on glutathione agarose beads for two to four hours at 4° C. […]

[2] = target: T2, GST-fusion protein containing the C-terminal domain of Dsh (Drosophila, UniProt P51140 395-623); assay: GST-fusion pull-down from Drosophila embryo lysates, in vitro kinase assay
T2 construct: domain: C-terminal; not shown: glutathione-S-transferase (GST) fusion partner
T2 sequence (looked up): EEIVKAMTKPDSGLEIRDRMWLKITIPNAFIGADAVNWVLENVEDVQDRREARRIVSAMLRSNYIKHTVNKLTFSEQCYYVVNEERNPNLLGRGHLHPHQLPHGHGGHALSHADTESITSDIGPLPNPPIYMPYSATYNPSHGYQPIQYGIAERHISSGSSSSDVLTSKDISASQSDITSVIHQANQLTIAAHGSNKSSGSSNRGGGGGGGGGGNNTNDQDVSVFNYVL
Protocol: (§2) Dsh is known to be progressively phosphorylated in Drosophila during the stages of embryonic development known to require Wnt. The stoichiometry of this phosphorylation is high and supports the importance of this reaction. To identify the kinase that phosphorylates Dsh, various regions of Dsh were tested for their ability to physically interact with this kinase. Equal amounts of lysates prepared from staged Drosophila embryos were blotted with anti-Dsh antibody. Only the GST-fusion protein containing the middle (DM), but not the N-terminal or C-terminal domain of Dsh, interacted with this kinase activity from Drosophila embryos. The Dsh- associated kinase activity, which was precipitated with GST-DM, increased as Dsh became progressively phosphoylated during development.
as §1, with “C. The glutathione beads were washed three times with lysis buffer and once with kinase buffer (50 mM Tris [pH7.6], 10 mM MgCl₂).” for “C.”

[3] = target: T3, GST-fusion protein containing the N-terminal domain of Dsh (Drosophila, UniProt P51140 1-166); assay: as above
T3 construct: domain: N-terminal; not shown: glutathione-S-transferase (GST) fusion partner
T3 sequence (looked up): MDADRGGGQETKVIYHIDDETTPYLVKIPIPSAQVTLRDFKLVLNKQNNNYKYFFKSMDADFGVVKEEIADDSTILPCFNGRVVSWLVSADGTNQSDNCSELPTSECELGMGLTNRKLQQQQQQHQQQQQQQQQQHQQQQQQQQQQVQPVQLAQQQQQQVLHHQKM
Protocol: as §2
as §1, with “C. The glutathione beads were washed three times with lysis buffer and once with kinase buffer (50 mM Tris [pH7.6], 10 mM MgCl₂).” for “C.”

binding result [1]: binds
binding result [2]: no binding
binding result [3]: no binding
B1: Drosophila PAR-1 (dPAR-1), the Dishevelled-associated kinase (enzyme)
chain: MSTAMRTTLQSVPEALPADSVSNGTASNVAAPAAPVSSATNAVPPLAAVSSTTATYATNSISTSSHSVKDQQQQQQQQQHDSANANIVSLPPTTTPVANTNTMMPIVTSSNSATSNSTAATPTPASGAAATGGVGSVSQGPATVSASAANTNHSHQHSHQHHHHVANNMTTDGARLSSNNSAVVASSAINHHHHHTPGSGVAPTVNKNVLSTHSAHPSAIKQRTSSAKGSPNMQMRSSAPMRWRATEEHIGKYKLIKTIGKGNFAKVKLAKHLPTGKEVAIKIIDKTQLNPGSLQKLFREVRIMKMLDHPNIVKLFQVIETEKTLYLIMEYASGGEVFDYLVLHGRMKEKEARVKFRQIVSAVQYCHQKRIIHRDLKAENLLLDSELNIKIADFGFSNEFTPGSKLDTFCGSPPYAAPELFQGKKYDGPEVDVWSLGVILYTLVSGSLPFDGSTLRELRERVLRGKYRIPFYMSTDCENLLRKFLVLNPAKRASLETIMGDKWMNMGFEEDELKPYIEPKADLADPKRIEALVAMGYNRSEIEASLSQVRYDDVFATYLLLGRKSTDPESDGSRSGSSLSLRNISGNDAGANAGSASVQSPTHRGVHRSISASSTKPSRRASSGAETLRVGPTNAAATVAAATGAVGAVNPSNNYNAAGSAADRASVGSNFKRQNTIDSATIKENTARLAAQNQRPASATQKMLTTADTTLNSPAKPRTATKYDPTNGNRTVSGTSGIIPRRSTTLYEKTSSTEKTNVIPAETKMASAVKSSRHFPRNVPSRSTFHSGQTRARNNTALEYSGTSGASGDSSHPGRMSFFSKLSSRFSKRPNQ
notes: Endogenous kinase from Drosophila embryo or Clone-8 cell lysates; In-gel bands of 110 kDa, 64 kDa and 130 kDa (minor) are said to be the kinase and its major fragment; also called Dsh-associated kinase; the kinase
